Source: publication PMC3428728

System: hSWI/SNF complex (FLAG-tagged) (Homo sapiens (HeLa))
Assay: competition
Conditions: scale: fold preference over macroH2A nucleosome

20/60 H2A nucleosome
binding signal: 9
